In article PMC6662836:

How the values were obtained:
[1] = tested on: S129-phospho-alpha-synuclein (human); assay: EMSA; conditions: 57 uM stated for GST in the comparison; 10% gel; N=3; EMSA: 20 ng DNA in 20 uL, 94 mM Tris-Cl pH 8.0, 25 mM NaCl, 1 mM EDTA, 5% ficoll; on ice 20 min then RT 30 min; 10% or 6% polyacrylamide TBE gel, 100 V …
alpha-synuclein (human) = assay: EMSA; conditions: 57 uM protein; 10% gel; N=3; EMSA: 20 ng DNA in 20 uL, 94 mM Tris-Cl pH 8.0, 25 mM NaCl, 1 mM EDTA, 5% ficoll; on ice 20 min then RT 30 min; 10% or 6% polyacrylamide TBE gel, 100 V …

## 300 bp dsDNA
[1]
  binding signal (fraction shifted): 0.58
alpha-synuclein (human)
  binding signal (fraction shifted): 0.86
